Laboratory results: patent US20050203007A1 (REGENTS OF THE UNIVERSITY OF MICHIGAN, published 2005)

Legend:
secreted, soluble Kex2 [1] = target: T1, secreted, soluble Kex2 (Saccharomyces cerevisiae, UniProt P13134 114-613, limits assumed); test: enzyme inhibition, fluorogenic substrate; * temporary inhibition
T1 construct: Secreted, soluble construct; also called kexin
T1 sequence (looked up): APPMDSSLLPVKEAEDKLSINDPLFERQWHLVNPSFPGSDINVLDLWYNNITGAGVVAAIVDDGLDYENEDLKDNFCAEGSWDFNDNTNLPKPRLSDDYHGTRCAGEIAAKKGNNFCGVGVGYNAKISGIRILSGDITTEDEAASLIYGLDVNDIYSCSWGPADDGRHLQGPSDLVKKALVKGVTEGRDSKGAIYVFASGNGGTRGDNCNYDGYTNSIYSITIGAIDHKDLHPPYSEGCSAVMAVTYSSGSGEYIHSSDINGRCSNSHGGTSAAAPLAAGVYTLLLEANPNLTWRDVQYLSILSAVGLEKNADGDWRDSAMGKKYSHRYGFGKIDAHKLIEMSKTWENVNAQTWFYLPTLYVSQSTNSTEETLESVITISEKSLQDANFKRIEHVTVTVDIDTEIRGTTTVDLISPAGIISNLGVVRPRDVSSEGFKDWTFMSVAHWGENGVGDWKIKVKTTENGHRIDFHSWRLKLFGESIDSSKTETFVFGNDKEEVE
Description: (§1) Affinities of eglin variants with secreted, soluble Kex2 (hereafter “Kex2”; Brenner, C. and Fuller, R. S. (1992) Proc. Natl. Acad. Sci. USA 89: 922-926) and secreted, soluble furin (hereafter, “furin”; Bravo, D. A. et al (1994) J. Biol. Chem. 269: 25830-25837; and Komiyama & Fuller (2000) Biochemistry 39: 15156-15165) were measured by incubating variants with the enzymes (˜0.5 to 2.0 nM) for 45 min to 1 h at 21° C. in one of two enzyme assay buffers. For Kex2, the buffer was 200 mM Bistris (pH 7.27) containing 1 mM CaCl₂ and 0.1% Triton X-100; and for furin, the buffer was 20 mM NaMES (pH 7.0) containing 1 mM CaCl₂ and 0.1% Triton X-100 for furin. 100 to 200 μL aliquots of reaction mixtures were transferred into triplicate wells of opaque 96 well plates (Costar), and residual enzyme activity was measured with an fmax fluorescence micro plate reader (Molecular Devices) by monitoring hydrolysis of a fluorogenic substrate Boc-Arg-Val-Arg-Arg-MCA. Data were graphically analyzed (KaleidaGraph) with an equation developed by Green and Work (1953). Site-directed mutagenesis at P2 and P6 of eglin c generated temporary inhibitors (Table 3) and exhausted possibility to improve affinity further with this approach.

secreted, soluble furin [2] = target: T2, secreted, soluble furin (human, UniProt P09958 108-715, limits assumed); test: as above
T2 construct: Secreted, soluble construct; also called human furin
Description: as §1

secreted, soluble Kex2 [3] = target: T1, secreted, soluble Kex2; test: equilibrium enzyme inhibition
Description: (§2) Thus, R1-eglin refers to substitution of Arg at position P1.
(§3) Affinities of eglin variants with secreted, soluble Kex2 (hereafter “Kex2”; Brenner, C. and Fuller, R. S. (1992) Proc. Natl. Acad. Sci. USA 89: 922-926) and secreted, soluble furin (hereafter, “furin”; Bravo, D. A. et al (1994) J. Biol. Chem. 269: 25830-25837; and Komiyama & Fuller (2000) Biochemistry 39: 15156-15165) were measured by incubating variants with the enzymes (˜0.5 to 2.0 nM) for 45 min to 1 h at 21° C. in one of two enzyme assay buffers. For Kex2, the buffer was 200 mM Bistris (pH 7.27) containing 1 mM CaCl₂ and 0.1% Triton X-100; and for furin, the buffer was 20 mM NaMES (pH 7.0) containing 1 mM CaCl₂ and 0.1% Triton X-100 for furin.

secreted, soluble furin [4] = target: T2, secreted, soluble furin; test: equilibrium enzyme inhibition
Description: as §2, §3

secreted, soluble Kex2 [5] = target: T1, secreted, soluble Kex2; test: estimated from koff
Description: (§4) In some aspects of the present invention, biological application of the eglin c variants of the present invention as inhibitors of processing in vivo depends upon the rate of binding to target enzymes, where it is critical. Therefore, the rate of action of eglin variants with Kex2 and furin was examined by incubating 5×10⁻¹⁰ M enzyme with inhibitor at molar ratios of inhibitor to enzyme ranging from 10 to 80. […] The relationship between kobs and inhibitor concentration was linear. The values of kₒₙ were determined from the slope of such curves, and dissociation rate constants (koff) were calculated (koff=kₒₙ/Kₐ). For R4R1-eglin, koff was calculated to be 2×10⁻⁴s⁻¹ for Kex2, and 3×10⁻⁴s⁻¹ for furin. […] Similarly, the t_{1/2} of the complex of M4R1-eglin with Kex2 was estimated to be 3 h. For complex of R4K1-eglin with furin, koff was calculated to be 2×10⁻⁴s⁻¹ implying that the koff and t_{1/2} for this complex are similar to those for the complex of R4R1-eglin with furin.

trypsin = test: enzyme inhibition; temporary inhibitor of trypsin
subtilisin Carlsberg = target: T3, subtilisin Carlsberg (UniProt P00780 106-379); test: enzyme inhibition
T3 sequence (looked up): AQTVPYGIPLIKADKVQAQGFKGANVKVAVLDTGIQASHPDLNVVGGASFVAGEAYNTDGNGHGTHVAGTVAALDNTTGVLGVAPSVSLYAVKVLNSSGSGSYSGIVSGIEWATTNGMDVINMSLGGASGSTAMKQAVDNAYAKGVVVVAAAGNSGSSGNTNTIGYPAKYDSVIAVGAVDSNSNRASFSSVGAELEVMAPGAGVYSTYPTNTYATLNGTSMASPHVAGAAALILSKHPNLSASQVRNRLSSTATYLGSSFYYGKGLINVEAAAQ

secreted, soluble Kex2 [6] = target: T1, secreted, soluble Kex2; test: equilibrium enzyme inhibition, fluorogenic substrate
Description: as §1

secreted, soluble furin [7] = target: T2, secreted, soluble furin; test: as above
Description: as §1

secreted, soluble Kex2 [8] = target: T1, secreted, soluble Kex2; test: enzyme inhibition, purified variant
Description: as §1

secreted, soluble furin [9] = target: T2, secreted, soluble furin; test: enzyme inhibition, purified variant
Description: as §1

secreted, soluble furin [10] = target: T2, secreted, soluble furin; test: calculated from kon (progress curves) and Ka
Description: as §4

human PC7 [11] = target: T4, human PC7 (human, UniProt Q16549 142-667, limits assumed); test: enzyme inhibition, purified variant
T4 sequence (looked up): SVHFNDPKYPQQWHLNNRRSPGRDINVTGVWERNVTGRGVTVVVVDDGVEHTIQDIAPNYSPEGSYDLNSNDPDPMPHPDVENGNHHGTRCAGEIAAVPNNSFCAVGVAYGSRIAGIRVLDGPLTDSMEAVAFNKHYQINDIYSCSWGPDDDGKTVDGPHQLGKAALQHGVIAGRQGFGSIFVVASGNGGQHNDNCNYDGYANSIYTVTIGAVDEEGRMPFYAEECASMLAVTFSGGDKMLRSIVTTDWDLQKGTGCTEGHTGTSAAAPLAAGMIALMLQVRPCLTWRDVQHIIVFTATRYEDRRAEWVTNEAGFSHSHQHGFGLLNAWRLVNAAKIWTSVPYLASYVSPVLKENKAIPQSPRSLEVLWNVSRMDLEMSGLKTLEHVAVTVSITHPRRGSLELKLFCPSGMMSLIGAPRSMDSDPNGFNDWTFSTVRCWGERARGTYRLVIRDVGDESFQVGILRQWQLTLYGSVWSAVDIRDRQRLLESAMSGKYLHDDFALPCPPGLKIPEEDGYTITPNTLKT

secreted, soluble Kex2 [12] = target: T1, secreted, soluble Kex2; test: enzyme inhibition, purified variant; remark: listed apart in the source
secreted, soluble furin [13] = target: T2, secreted, soluble furin; test: enzyme inhibition, purified variant; remark: listed apart in the source
human PC7 [14] = target: T4, human PC7; test: enzyme inhibition, purified variant; Kassoc
secreted, soluble Kex2 [15] = target: T1, secreted, soluble Kex2; test: enzyme inhibition, purified variant; Kassoc
secreted, soluble furin [16] = target: T2, secreted, soluble furin; test: enzyme inhibition, purified variant; Kassoc
secreted, soluble Kex2 [17] = target: T1, secreted, soluble Kex2; test: rapid inhibition assay; listed as potent inhibitor of Kex2

T2 sequence (P09958 108-715 limits assumed): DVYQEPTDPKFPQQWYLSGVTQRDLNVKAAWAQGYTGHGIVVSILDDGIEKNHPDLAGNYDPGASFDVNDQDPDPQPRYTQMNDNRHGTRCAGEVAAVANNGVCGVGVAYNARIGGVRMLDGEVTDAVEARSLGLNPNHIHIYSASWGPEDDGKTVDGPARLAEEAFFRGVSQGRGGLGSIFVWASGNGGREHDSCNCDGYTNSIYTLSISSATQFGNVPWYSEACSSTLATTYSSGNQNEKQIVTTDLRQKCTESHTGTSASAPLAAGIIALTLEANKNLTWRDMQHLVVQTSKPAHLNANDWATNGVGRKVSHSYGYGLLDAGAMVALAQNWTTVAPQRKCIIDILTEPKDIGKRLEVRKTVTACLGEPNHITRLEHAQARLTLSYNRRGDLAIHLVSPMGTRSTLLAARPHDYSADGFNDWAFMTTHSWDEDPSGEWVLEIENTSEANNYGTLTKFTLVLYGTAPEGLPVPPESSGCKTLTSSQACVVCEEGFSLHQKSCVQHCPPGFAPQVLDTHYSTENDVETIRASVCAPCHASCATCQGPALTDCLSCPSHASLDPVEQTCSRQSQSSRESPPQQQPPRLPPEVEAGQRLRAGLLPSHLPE
Sequence of trypsin (P00760 24-246): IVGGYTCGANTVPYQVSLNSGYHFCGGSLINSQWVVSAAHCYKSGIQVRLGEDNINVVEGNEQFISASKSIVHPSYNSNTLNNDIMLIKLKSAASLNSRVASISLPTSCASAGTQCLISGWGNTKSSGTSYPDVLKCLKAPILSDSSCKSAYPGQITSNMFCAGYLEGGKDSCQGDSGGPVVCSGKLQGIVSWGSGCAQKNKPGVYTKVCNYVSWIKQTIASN

B1: K2R1-eglin (designed binder)
chain: SMGSELKSFPEVVGKTVDQAREYFTLHYPQYDVYFLPEGSPVKRDLRYNRVRVFYNPGTNVVNHVPHVG
notes: N-terminal Met removed
Ki (secreted, soluble Kex2 [1]): 0.67 nM
Ki (secreted, soluble furin [2]): 100 nM

B2: M4K2R1-eglin (designed binder)
chain: SMGSELKSFPEVVGKTVDQAREYFTLHYPQYDVYFLPEGSMVKRDLRYNRVRVFYNPGTNVVNHVPHVG
notes: N-terminal Met removed
Ki (secreted, soluble Kex2 [1]): 0.59 nM
Ki (secreted, soluble furin [2]): 83 nM

B3: M4R1-eglin (designed binder)
chain: SMGSELKSFPEVVGKTVDQAREYFTLHYPQYDVYFLPEGSMVTRDLRYNRVRVFYNPGTNVVNHVPHVG
notes: N-terminal Met removed
fold higher affinity of Kex2 than of furin (secreted, soluble Kex2 [3]): ~10000 fold
fold increase in Ka relative to R1-eglin (secreted, soluble Kex2 [3]): 88 fold
fold increase in affinity relative to L1-eglin (secreted, soluble Kex2 [3]): 1.5e+06 fold
fold increase in affinity relative to L1-eglin (secreted, soluble furin [4]): 33 fold
fold increase in affinity relative to R1-eglin (secreted, soluble furin [4]): 15 fold
half-life (t1/2) of the complex (secreted, soluble Kex2 [5]): 3 h
Ka (trypsin): 4.4e+10 M⁻¹
Ka (subtilisin Carlsberg): 6.6e+10 M⁻¹
Ki (secreted, soluble Kex2 [6]): 0.34 nM
Ki (secreted, soluble furin [7]): 3600 nM

B4: R4K1-eglin (designed binder)
chain: SMGSELKSFPEVVGKTVDQAREYFTLHYPQYDVYFLPEGSRVTKDLRYNRVRVFYNPGTNVVNHVPHVG
notes: N-terminal Met removed; also called R4K1-template
fold decrease of Ka relative to R4R1-eglin (secreted, soluble Kex2 [3]): 2.8 fold
fold higher affinity for Kex2 than for furin (secreted, soluble Kex2 [3]): ~20 fold
fold reduction of Ka relative to R4R1-eglin (secreted, soluble furin [4]): 15.4 fold
Ki (secreted, soluble Kex2 [8]): 2.5 nM
Ki ratio (to R4K1- template) (secreted, soluble Kex2 [8]): 1
Ki (secreted, soluble furin [9]): 38 nM
Ki ratio (to R4K1- template) (secreted, soluble furin [9]): 1
koff (secreted, soluble furin [10]): 0.0002 s⁻¹
Ki (secreted, soluble Kex2 [6]): 2.5 nM
Ki (secreted, soluble furin [7]): 38 nM

B5: R4K2R1-eglin (designed binder)
chain: SMGSELKSFPEVVGKTVDQAREYFTLHYPQYDVYFLPEGSRVKRDLRYNRVRVFYNPGTNVVNHVPHVG
notes: N-terminal Met removed
Ki (secreted, soluble Kex2 [1]): ~0.5 nM
Ki (secreted, soluble furin [2]): ~0.5 nM

B6: R6R4R1-eglin (designed binder)
chain: SMGSELKSFPEVVGKTVDQAREYFTLHYPQYDVYFLPERSRVTRDLRYNRVRVFYNPGTNVVNHVPHVG
notes: N-terminal Met removed; also called Gly40 Arg on R4R1-template
Ki (secreted, soluble furin [2]): 2 nM
Ki (secreted, soluble Kex2 [6]): 0.29 nM

B7: Tyr49Asp-R4R1-eglin (designed binder)
chain: SMGSELKSFPEVVGKTVDQAREYFTLHYPQYDVYFLPEGSRVTRDLRDNRVRVFYNPGTNVVNHVPHVG
notes: R4R1 template; N-terminal Met removed; also called Asp49-R4R1-eglin; Asp49-R4R1-
Ki (secreted, soluble Kex2 [8]): 0.045 nM
Ki ratio (to R4R1- template) (secreted, soluble Kex2 [8]): 0.05
fold enhanced affinity (relative to R4R1-eglin) (secreted, soluble Kex2 [8]): 16 fold
Ki (secreted, soluble furin [9]): 0.33 nM
Ki ratio (to R4R1- template) (secreted, soluble furin [9]): 0.132
fold enhanced affinity (relative to R4R1-eglin) (secreted, soluble furin [9]): 10 fold
Ki (human PC7 [11]): 1.8 nM
Ki (secreted, soluble Kex2 [12]): 0.056 nM
Ki (secreted, soluble furin [13]): 0.3 nM
Ka (human PC7 [14]): 5.6e+08 M⁻¹
Ka (secreted, soluble Kex2 [15]): 1.8e+10 M⁻¹
Ka (secreted, soluble furin [16]): 3e+09 M⁻¹

B8: Val49-R4R1-eglin (Tyr49 to Val) (designed binder)
chain: SMGSELKSFPEVVGKTVDQAREYFTLHYPQYDVYFLPEGSRVTRDLRVNRVRVFYNPGTNVVNHVPHVG
notes: tested as partially purified extract
binding result (secreted, soluble Kex2 [17]): binds
